# Reference: the nanobody polyreactivity screen of Harvey et al. (2022)
# Experiment: yeast display, Sf9 membrane polyspecificity reagent, FACS + sequencing; frameworks hold sequencing errors
# Outline: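 A synthetic nanobody library was expressed on Saccharomyces cerevisiae BJ5465 by galactose induction for 36–48 hours. The library was stained for 1 hour at 4 °C with 10% biotinylated, detergent-solubilized Sf9 membrane reagent and enriched with streptavidin microbeads before FACS. Low and high (top ~1%) gates were set on anti-HA fluorescence for expression and streptavidin fluorescence for reagent binding, and each polyreactivity label reflects the gate of origin.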
row,Sequence,polyreactivity (PSR sort gate)
1,QVHLVESGGGLVQAGGSLRLSCAASGSILLINAMGWYRQAPGKERELVAAIRTGGSTYYADSVKGRFTISRDNAKNTVSLQMNSLKPEDTAVYYCAVRTGRRWWKFDYWGQGTQVTVSS,low polyreactivity
2,QVQLVESGGGLVQAGGSLRLSCAASGFTFGYYAMGWYRQAPGKERELVAAITYSGGSTYYADSVKGRFTISRDNAKNTVYLQMNSLKPEDTAVYYCNAYARRYYYGRWYGEFDYWGQGTQVTVSS,low polyreactivity
3,QVQLVESGGGLFQAGGSLRLSCAASGSIFERYTMGWYRQSPGKERELVAAISRSGGRTYYADSVKGRFTISRDNAKNTVYLQMNSLKAEDTAVYYCARTRVASKGYDYWGQGTQVTVSS,high polyreactivity
4,QVQLVESGGGLVQAGGSLRLSCAASGSTITFYTMGWYRQEPGKEREFVADIDDSGGITYYADSVKGRFTISRDNAKNTVYLQMNSLKPEDTAVYSCAAEYWTACYWICVDYWGQGTQVTVSS,high polyreactivity
5,QVQLVESGGGLVQAGGSLRLSCAASGSTFYFNSMGWYRQAPGKERELVAAITSGARTKYADSVKGRFTMSRDNAKITVYLQMNSLKPEDTAVYYCSASGLYYYRYRYYYWGQGTQVTVSS,high polyreactivity
6,QVQLVESGGGLVQAGGSLRLSCAASGIIFAANTMGWYRQAPGKDREFVAAISKRGGTTYYADSVKGRFTISRDNAKNTVYLQMNSLKPEDSAVYYCNRRNGWSRGEYWGQGTQVTVSS,high polyreactivity
7,QVQLVESGGGLVQAGGSLRLSCAASGRILHRNAMGWYRQAPGKERELVSAIRSRGGGTYYADSVKGRFTISRDNAKNTVYLQMKSLKPEDTAVYYCNTDRSTRTVGPGLYGYWGQGTQVTVSS,low polyreactivity
8,QVQLVESGGGLVQAGGSLRLSCAASGSIFPYNAMGWYRQAPGKERELVATISSGGSTNYADSVKGRFTISRDNAKNTVYLQMNSLKPEDTAVYYCAADVIVFYYAPNYWVDIEYGYWGQGTQVTVSS,low polyreactivity
9,QVQLVESGGGLVQAGGSLRLSCAASGYTFSRYAMGWYRPAPGKERELVAAITGRGGSTYYADSVKGRFTISRDNAKNTVYLLMNSLKPEDTAVYYCAVGRYPYVWRYYYWGQGTQVTVSS,high polyreactivity
10,QVQLVESGGGLVQAGGSLRLSCAASGRIFPRYVMGWYRQAPGKERELVAAITYRGGSTSYADSVKGRFTISRDNAKNTVYLQMNSLKPEDTAVYYCNAKSLYYNYAYDYWGQGTQVTVSS,high polyreactivity
11,QVQLVESGAGLVQAGGSLRLSCAASGSTFYMYAMGWDRTATGKERELLADISLSGVSTYYADSVKGRFTFSRDNAKHTVYLQMNSLKPEDTAVYYCAADVFYPGPWSYEYWGQGTHVTVSS,low polyreactivity
12,QVQLVESGGGLVQSGGSLRLSCAASGLIFYDNMGWYIQAPGKERELVAAISSSGGSTSYADSVKGRFTISRDNAKNTVYLQMNSLKPEDTAVYYCAADSYPAYLGFVGFDYWGQGTQVTVSS,low polyreactivity
13,QVQLVESGGGLVQAGGSLRVSCAASGSIFIGYAMGWSRQAPGKERELVAAINDSGDRTYYADSVKGRFTISRDNAKNTVYLQMNSLKPEDTAVYYCAADLVSLDPEYDYWGQGTQVTVSS,low polyreactivity
14,QVQLVESGGGLVQAGGSLRLSCAASGRTFRTYVMGWYRQAPGKEREFVAGITWSSGSTRYADSVKGRFTISRDNAKNTVYLQMNSLKPEDTAVYYCAASRVHSYNPGYPRYYYWGQGTQVTVSS,high polyreactivity
15,QVQLVESGGGLVQAGGSLRLRCAASGRIFVYNAMGWYRQAPGKERELVAAISRSGSSTYYADSVKGRFTISRDNAKNTVYLQMYSLKPEDTSVYYCAARTFSIAYYKYGYWGQGTHVTVSS,high polyreactivity
16,QVQLVESGGGLVQAGGSLRLSCAASGRTFVGYTMGWYRQAPGKERELVAAIDLSDGSTSYADSVKGRFTISRDNAKNTVYLQMNSLIPEDTAVYYCAKTWANVYAGAHDYWGLGTQVTVSS,low polyreactivity
17,QVQLVESGGGLVQAGGSLRLSCAASGSTFTSYAMGWYRQAPGKERELVAAISWRGGSTYYADSVKGRFTISRDNAKNTVYLQMNSLKPEDTAVYYCNAVVRQPHDLDYWGQGTQVTVSS,high polyreactivity
18,QVQLVESGGGLVEAGVSLRISCAASGRIFAYNTMGWYRQAPGKERELVAAISWRGGSTYYADSVKGRFTISRDNEKNSVHLQRNSLKPEDTAVYYCAVLSSSLTRFDYWGQGSQVTVSS,high polyreactivity
19,QVQLVESGGGLVQAGGSLRLSCAASGGNFRYYAMGWYRQAPGKERELVAAITRGGRTSYADSVKGRFTISRDNAKNTVYLQMNSLKPEDSAVYYCNAKRPYQEHNSYGYWGQGSQVTVSS,high polyreactivity
20,QVQLVESGGGLVQAGGSLRLSCAASGLIFSLYAMGWSRQAPGKDRELVADITVDGDGSTYYADSVKGRFTISRDIAKNTVYLQMNSLIPEDTAVYYCAADAYFGWYYYWGQGTQVTVSS,high polyreactivity
21,QVQHVESGGGIVQAGGSLRLSCAASGSTFFGNGMGWYRQAPGKERELVAAISGGGSTHYADSVKGRFTSSRDNAKNTVYVQMNSLKPEDTAVYYCSPSRDTVGRGPIQRDYWGQGTQVTVSS,low polyreactivity
22,QVQLVESGGGLDQAGGSLRLSCAASGSIFVPYAMGGYRQAPGKERELVAAITSGDSTYYADSVKGRFTISRDNAKNNVYLQMNSLKPEDTAVYYCAADIRPTLSLLSLFDYEYWGQGTQVTVSS,low polyreactivity

row,Sequence,polyreactivity (PSR sort gate)
1,QVQLVESGGGLVQPGGSLRLSCAASGFIFRNYAMGWYRQAPGQERELVAAITRSGDNTYYADSVKGRFTISRDNAKNTVYLQMNSLKPEDTAVYYCAARDVQYQQALGGDYWGQGTQVTVSS,low polyreactivity
2,QVQLVESGGGLVQAGGSLRLTCAASGRIFYKYVMGWYRQAPGKERELVATITSGGSTYYADSVKGRFTISRDNAKNTVYLHMNSLKPEDTAVYYCAARKYYSRAYDYWGQGTQVTVSS,high polyreactivity
3,QVQLEESGGGLVQAGGSLRLSCAASGIISTVYAMGWYRQAPGKERELVAAISCSGGSTYYADSLKGSFTISRDNENNTVYLQMNSLKPEDTAVYYCSKGYQYQGNSYGYWGQGTQVTVSS,low polyreactivity
4,QVQLVESGGGLVQAGGSLRLSCAASGITFQGNAMGWYRQAPGKEREFVAAISWSGDSTYYADSVKGRFTISRDNAKNTVYLQMNSLKPEDTAVYYCAASRVIPSYPYYKYDYWGQGTQVTVSS,low polyreactivity
5,QVQLVESGGGLVQAGGSLRLSCAASGSTFQPYAMGWYRQAPGKEREFVATISGSAGSTYYADSVKGRFKISRDNAKNTVYLQMNSLKPEDTGVYYCNARPARKSLDYDYWGQGTQVTVSS,low polyreactivity
6,QVQLVESGGGLVQGGGSLRLSCAASGSIFPHNAMGWSRQAPGKERELVASITSRGGITYYADSVKGRFTISRDNAKNPLNLQMNSLKPEDTAVYYCAADLYIYPYDYWGQGTQVTVSS,low polyreactivity
7,QVQLVESGGGLVQAGGSLRLSCAASGSIFFYAMGWYIQAPGKERQLVAAISWRGGSTYADSVKGRFTISRDNAKKTVYLQMKSLKPEDTAVYYCAKDWVRSGAVIDYDYWGQGTQVTVSS,high polyreactivity
8,QVHLVESGGGLFQEGGSLRLSCAPSGSNFATYTMGWYRQAPGKERELVAAIRRSGGSTYYADSVKGRFTLSRDNAKNTVYLLMNSLKPEDTEVYYCAAKHYYYSPYVRYDPPPGYYWGQGTQVTVSS,high polyreactivity
9,QVQQVESGGGLVQAGGSLRLSCADSGRTFTLYAMGWYRQAPGKERELVAAITWRGGRTYYADSVKGRFTISRDNAKNTVYFQMNSLKPEVTEVYYCAARKYSPQLDRYGYWGQGTQVTVSS,high polyreactivity
10,QVHLVESGGGLVQAGGSLRLSCAASGFTFVQYAMGWYRQAPGKERELVATISKSGGITYYADSVKGRFTISRDNAKNTVYLQMNSLKPEDTSVYYCAAAWYYSSRGFHATWGHDYWGQGTQVTVSS,low polyreactivity
11,QVQLVESGGGLVQAGGRLRLSFAASGSIFYRNVLGWYREAPGKERELVATISRGGTTNYADSVKGRFTISRDNAKNTVYLQMNSLKPEDTAVYYCAAPIGDVYVGKGYDSWGQGTQVTVSS,low polyreactivity
12,QVQLVESGGGLVQAGGSLRLSCAASGRIFFDYAMGWYRQAPGKERELVADIDWSGGITYYADSVKGRFTISRDNAKNTVYLQMNSLIPEDTAVYYCAADFDELYPTTAYGEFEYWGQGTQVTVSS,high polyreactivity
13,QVQLVESGGGLVQAGGSLRLSCDASGRIFYSYDIGWYRQAHGKARELVATISSAGSTYYADSVKGRFTISRDNAKNTVYLQMNSLKPEDTAVYYSARRSGWWTRMDSWGQGTQVTVSS,high polyreactivity
14,QVQLVESGGGIFQAGGSLRLSCAASGSTFDYNAMGWYRQAPGKERELVADITGSGASTSYADSVKGRFTISRDNEKNTVYLQMKILKPEDTAVYYCNADDSYFYELYGYWGQGTQVTVSS,low polyreactivity
15,QVQLVESGGGLVQAGGSLRLSCAASGRTFYDYAMGWYREAPGKEMELVASIRGSDGSTYYADSVKGRFTISRDKAKNTVYLQMNSLKPEDTSVYYCAARGFYGTNGRVYITSYYYLGQGTQVTVSS,high polyreactivity
16,QVQLVESGGGLVQAGGSLRLSCAASGRIFGYYALGLSRQAPGKERELVAAINSGSRTYYADSVKGRFTISRDNAKNTVYLQMNSLKPEDTAVYYCAKVGRGNNYWGQGTQVTVSS,high polyreactivity
17,QVQLVESGGGIVQAGGSLRLSCAASGIIIAVYAMGWYRQAPGKERELVAAISWSSGNTYYADSVKGRFTISRENAKNTVYLQMNSLNPEDTAVYYCAAVSRYKYDYWGQGTQVTVSS,high polyreactivity
18,QVQRVESGGGLVQAGGSLRLSCAASGYTFLRYAKGSYRQAPGKERELVAAISRRGGRTYYADSVKGRFTISRDNAKNTVYLQMNSLKPEDTAVYYCAAVNSTQTIGLMDYWGQGTQVTVSS,high polyreactivity
19,QVQLVESGGGLVQAGGSLRLICAASGPTFYYYAMGWYTQAPGKERELVARISRGGSTNYADSVKGRFTISRDNAKNTVYLQMNSLKAEDTAVYYFAITISYTGGYWGYDYWGQGTQVTVSS,high polyreactivity
20,QVQLVESGGGLVQAGGSHRVSCAASGYIFLHYAMGWYRQATGKEREFVAAITYSGGNTYYADSVKGRFTISRDNAKNTVYLQMISLKPEDTAGYYCAKTRIYSKHWTEPYFYRVDSWGQGTQVTVSS,high polyreactivity
21,QVQLVESGGGLVQAGGSLRLSCAASGNTFGYNAMGWYRQAPGKERELVAAISSSGTRTYYADSVKGRFTISRDNAKNTVYLQMNSLKPEDTAVYYCNARSTRYKFGYWGQGTQVTVSS,high polyreactivity
